Laboratory results reported in US20220396632A1 (VERSEAU THERAPEUTICS, published 2022).
Non-standard residues stand in square brackets, D forms with d. No end group written: not given here. *: point of attachment. Biotin = O=C1N[C@H]2[C@H](CS[C@H]2CCCCC(=O)*)N1; sY = N[C@@H](Cc1ccc(OS(=O)(=O)O)cc1)C(=O)O

Assays:
Assay in all cases: ELISA, 50 nM mAb
SulfoTyr C4 peptide = target: T1, SulfoTyr C4 peptide (not fully specified; Y4, Y7 and Y9 sulfated (SO3); C-terminal biotin)
T1 construct: also called C4 alpha chain peptide; human sulfotyrosinylated C4 peptide
T1 peptide: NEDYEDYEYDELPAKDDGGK
Description: (§1) Recombinant PSGL-1-hFc1 chimera protein consisting of PSGL-1's extracellular domain (ECD) served as a positive control. […] Primary antibody was added (25 ul per well) in duplicate at 50 nM in assay buffer (blocking buffer containing 0.05% Tween®20) into test and control (just blocked) wells and the plate incubated for 45 min at 37° C.

[1] = target: T2, Recombinant human PSGL-1(ECD)-hFc1 (R&D Systems, Cat. 3345-PS) (human, UniProt Q14242 42-305)
T2 construct: Bought; Gln42-Val295 counted on AAC50061; also called PSGL-1-Fc; PSGL-1-hFc1 chimera; not shown: human IgG1 Fc, Pro100-Lys330
T2 sequence: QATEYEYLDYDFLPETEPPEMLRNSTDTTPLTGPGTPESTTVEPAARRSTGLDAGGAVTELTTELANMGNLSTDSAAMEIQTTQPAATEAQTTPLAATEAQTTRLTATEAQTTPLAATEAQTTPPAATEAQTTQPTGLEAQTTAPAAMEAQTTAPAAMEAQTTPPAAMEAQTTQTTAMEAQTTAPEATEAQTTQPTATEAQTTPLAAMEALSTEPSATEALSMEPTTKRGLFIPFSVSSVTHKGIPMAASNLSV
Description: as §1

[2] = target: T3, Human complement C4 protein (Millipore Sigma, Cat. 204886) (human, UniProt P0C0L4 20-675; P0C0L4 680-1446; P0C0L4 1454-1744, limits assumed, natural sulfotyrosines)
T3 construct: mature
Description: as §1

[3] = target: T4, Human fibrinogen protein (ThermoFisher, RP-43142) (human, UniProt P02671 20-629; P02675 31-491; P02679 27-453, limits assumed, natural sulfotyrosines)
T4 construct: mature; Native dimer with 3 pairs of non-identical chains; also called gamma-fibrinogen; γ fibrinogen protein
T4 sequence (looked up) 1: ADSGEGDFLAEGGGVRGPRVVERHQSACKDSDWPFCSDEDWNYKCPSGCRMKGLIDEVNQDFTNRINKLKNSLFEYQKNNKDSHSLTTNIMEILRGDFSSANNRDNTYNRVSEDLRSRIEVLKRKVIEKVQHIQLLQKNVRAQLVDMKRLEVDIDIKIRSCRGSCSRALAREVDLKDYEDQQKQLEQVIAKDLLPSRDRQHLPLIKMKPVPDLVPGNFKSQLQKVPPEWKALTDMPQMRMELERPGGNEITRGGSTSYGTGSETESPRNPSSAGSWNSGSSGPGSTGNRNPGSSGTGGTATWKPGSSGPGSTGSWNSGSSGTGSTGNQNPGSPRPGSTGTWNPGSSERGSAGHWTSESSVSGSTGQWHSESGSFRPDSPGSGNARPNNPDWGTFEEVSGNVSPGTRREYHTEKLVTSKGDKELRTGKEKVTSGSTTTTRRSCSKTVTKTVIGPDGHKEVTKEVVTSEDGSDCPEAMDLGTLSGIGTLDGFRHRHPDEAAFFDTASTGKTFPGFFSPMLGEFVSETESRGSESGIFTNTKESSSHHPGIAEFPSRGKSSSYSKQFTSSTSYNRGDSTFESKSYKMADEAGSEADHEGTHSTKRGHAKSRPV
T4 sequence (looked up) 2: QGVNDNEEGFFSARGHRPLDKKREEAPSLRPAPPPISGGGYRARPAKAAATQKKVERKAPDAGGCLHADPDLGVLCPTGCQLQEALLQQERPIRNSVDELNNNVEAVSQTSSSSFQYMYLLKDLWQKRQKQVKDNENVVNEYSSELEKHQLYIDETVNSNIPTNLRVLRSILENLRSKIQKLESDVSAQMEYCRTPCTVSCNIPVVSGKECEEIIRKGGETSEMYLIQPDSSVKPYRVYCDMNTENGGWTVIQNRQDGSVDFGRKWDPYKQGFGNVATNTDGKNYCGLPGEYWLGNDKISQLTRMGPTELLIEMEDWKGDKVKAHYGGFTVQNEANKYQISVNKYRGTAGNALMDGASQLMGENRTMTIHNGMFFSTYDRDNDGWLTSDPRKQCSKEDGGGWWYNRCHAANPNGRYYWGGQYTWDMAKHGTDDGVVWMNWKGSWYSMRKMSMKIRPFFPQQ
T4 sequence (looked up) 3: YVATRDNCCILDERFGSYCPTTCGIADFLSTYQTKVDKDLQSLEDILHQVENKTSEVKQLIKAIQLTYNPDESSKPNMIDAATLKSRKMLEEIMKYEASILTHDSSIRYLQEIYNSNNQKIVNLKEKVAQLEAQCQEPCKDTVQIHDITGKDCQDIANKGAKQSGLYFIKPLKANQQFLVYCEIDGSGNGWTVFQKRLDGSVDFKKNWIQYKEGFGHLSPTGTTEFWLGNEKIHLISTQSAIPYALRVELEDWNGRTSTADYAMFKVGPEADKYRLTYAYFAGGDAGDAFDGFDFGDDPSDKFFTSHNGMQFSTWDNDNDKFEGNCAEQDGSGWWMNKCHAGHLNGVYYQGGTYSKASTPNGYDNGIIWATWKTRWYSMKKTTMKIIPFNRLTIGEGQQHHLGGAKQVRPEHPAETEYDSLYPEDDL
Description: as §1

SulfoCCK biotin peptide = target: T5, SulfoCCK biotin peptide (human)
T5 construct: also called sulfotyrosine CCK peptide
T5 peptide: SHRISDRD[sY]MGWMDFGGK(Biotin)
Description: as §1

[4] = target: T6, Sulfotyrosine CCR2b biotin peptide (human)
T6 construct: also called CCR2b peptide
T6 peptide: TTFFD[sY]D[sY]GAPSHGGK(Biotin)
Description: as §1

[5] = target: T7, Sulfotyrosine D6 biotin peptide (human)
T7 construct: also called D6 peptide
T7 peptide: ENSSFY[sY][sY]D[sY]LDEVAFGGK(Biotin)
Description: as §1

T3 sequence (P0C0L4 20-675 limits assumed, form in doubt, chain 1 of 3): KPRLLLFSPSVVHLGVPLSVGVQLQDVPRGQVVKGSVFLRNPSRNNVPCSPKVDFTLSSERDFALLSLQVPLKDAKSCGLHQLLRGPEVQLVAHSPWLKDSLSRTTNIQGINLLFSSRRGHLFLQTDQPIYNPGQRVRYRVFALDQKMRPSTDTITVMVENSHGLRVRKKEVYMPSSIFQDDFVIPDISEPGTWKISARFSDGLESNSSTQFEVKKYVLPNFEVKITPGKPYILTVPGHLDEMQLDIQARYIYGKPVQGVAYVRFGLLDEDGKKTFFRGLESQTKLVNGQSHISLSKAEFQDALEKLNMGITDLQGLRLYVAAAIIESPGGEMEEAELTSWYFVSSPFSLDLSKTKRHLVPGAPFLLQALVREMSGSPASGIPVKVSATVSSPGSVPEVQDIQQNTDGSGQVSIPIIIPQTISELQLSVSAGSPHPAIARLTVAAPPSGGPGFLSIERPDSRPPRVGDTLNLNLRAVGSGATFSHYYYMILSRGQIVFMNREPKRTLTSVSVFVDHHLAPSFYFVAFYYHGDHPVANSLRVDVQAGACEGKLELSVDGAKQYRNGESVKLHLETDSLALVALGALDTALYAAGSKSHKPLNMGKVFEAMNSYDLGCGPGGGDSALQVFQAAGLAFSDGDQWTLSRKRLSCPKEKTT
T3 sequence (P0C0L4 680-1446 limits assumed, form in doubt, chain 2 of 3): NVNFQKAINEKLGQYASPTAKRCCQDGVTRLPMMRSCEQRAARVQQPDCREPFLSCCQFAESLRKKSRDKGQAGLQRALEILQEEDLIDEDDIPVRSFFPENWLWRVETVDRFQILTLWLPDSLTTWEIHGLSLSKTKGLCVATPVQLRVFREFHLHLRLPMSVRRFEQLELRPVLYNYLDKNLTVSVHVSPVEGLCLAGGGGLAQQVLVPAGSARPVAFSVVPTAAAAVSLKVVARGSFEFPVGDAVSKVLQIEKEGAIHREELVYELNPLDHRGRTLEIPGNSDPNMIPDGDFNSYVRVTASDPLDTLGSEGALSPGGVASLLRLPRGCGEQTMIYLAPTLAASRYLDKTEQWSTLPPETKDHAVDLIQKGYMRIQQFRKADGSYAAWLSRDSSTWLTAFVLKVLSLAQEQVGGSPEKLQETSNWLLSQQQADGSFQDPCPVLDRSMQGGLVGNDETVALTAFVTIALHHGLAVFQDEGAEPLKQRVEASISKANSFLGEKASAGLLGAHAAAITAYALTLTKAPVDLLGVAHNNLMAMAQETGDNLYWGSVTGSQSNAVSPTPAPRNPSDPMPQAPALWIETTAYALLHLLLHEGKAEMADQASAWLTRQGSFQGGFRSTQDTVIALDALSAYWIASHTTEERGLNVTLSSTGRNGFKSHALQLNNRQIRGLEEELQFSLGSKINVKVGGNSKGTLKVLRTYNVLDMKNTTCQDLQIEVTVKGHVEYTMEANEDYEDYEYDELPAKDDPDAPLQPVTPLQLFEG
T3 sequence (P0C0L4 1454-1744 limits assumed, form in doubt, chain 3 of 3): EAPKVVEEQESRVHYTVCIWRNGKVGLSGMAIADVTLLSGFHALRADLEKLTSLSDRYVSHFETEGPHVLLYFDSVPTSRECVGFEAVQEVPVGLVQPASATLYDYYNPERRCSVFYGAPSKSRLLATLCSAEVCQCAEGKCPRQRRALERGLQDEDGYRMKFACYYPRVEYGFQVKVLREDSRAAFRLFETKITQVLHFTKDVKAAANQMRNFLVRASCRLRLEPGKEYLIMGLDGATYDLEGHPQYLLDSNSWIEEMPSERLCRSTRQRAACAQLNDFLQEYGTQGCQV

B1: 03F03 (antibody, V domains shown)
VH: QVQLQESGPGLVKPSETLSLTCTVSGGSISSSSYYWGWIRQPPGKGLEWIGSIYYSGSTYYNPSLKSRVTISVDTSKNQFSLKLSSVTAADTAVYYCARSRPRPWAFDIWGQGTMVTVSS
VL: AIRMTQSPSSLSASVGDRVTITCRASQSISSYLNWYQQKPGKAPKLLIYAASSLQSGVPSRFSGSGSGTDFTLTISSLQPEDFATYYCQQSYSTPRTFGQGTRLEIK
SulfoTyr C4 peptide
  binding normalized to PSGL-1: 1.19
[1]
  A450nm: 2.12 A450nm
[2]
  binding normalized to PSGL-1: 1.35
[3]
  binding normalized to PSGL-1: 0.23
SulfoCCK biotin peptide
  binding normalized to PSGL-1: 0.96
[4]
  binding normalized to PSGL-1: 1.21

B2: 09D04 (antibody, IgG4, V domains shown)
VH: QVQLQQSGGGLVQPGGSLTLSCVGSGFDFRSYAMSWVRQAPGKGLEWVSGINNSGSKTYYADFVKGRFSVSRDNSKNIVWLRMRSLRAEDTAVYYCARRTFGPPHAWGQGTMVTVSS
VL: DVVMTQSPLSLPVTPGEPASISCRSSQSLLHSNGYTYLEWYLHKPGQSPQLLIYLGSNRASGVPDRFSGSGSGTDFTLKISRVEAEDVGVYYCMHSLHIPFTFGPGTKVDIK
SulfoTyr C4 peptide
  binding normalized to PSGL-1: 0.4
[1]
  A450nm: 2.66 A450nm
[2]
  binding normalized to PSGL-1: 0.61
[3]
  binding normalized to PSGL-1: 0.25
SulfoCCK biotin peptide
  binding normalized to PSGL-1: 0.53
[4]
  binding normalized to PSGL-1: 0.37
[5]
  binding normalized to PSGL-1: 0.75

B3: 11D10 (antibody, IgG4, V domains shown)
VH: EVKLLESGGGLVQPGGSLRLSCAVSGFTFSTSAMIWVRQAPGKGLEWVSFISGSTSNTYYADSVKGRFTISRDNSKNTLYLQMNGLTAEDTAVYYCARGTAAATWGQGALVTVSS
VL: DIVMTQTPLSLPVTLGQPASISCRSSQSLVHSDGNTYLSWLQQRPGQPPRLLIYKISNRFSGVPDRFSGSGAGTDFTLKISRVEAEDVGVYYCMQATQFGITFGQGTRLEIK
SulfoTyr C4 peptide
  binding normalized to PSGL-1: 0.07
[1]
  A450nm: 2.38 A450nm
[2]
  binding normalized to PSGL-1: 0.09
[3]
  binding normalized to PSGL-1: 0.03
SulfoCCK biotin peptide
  binding normalized to PSGL-1: 0.05
[4]
  binding normalized to PSGL-1: 0.04
[5]
  binding normalized to PSGL-1: 0.08

B4: 05H03 (antibody, IgG4, V domains shown)
VH: QVQLQQSGGGLVQPGGSLTLSCVGSGFDFRSYAMSWVRQAPGKGLEWVSGINNSGSKTYYADFVKGRFSVSRDNSKNIVWLRMRSLRAEDTAVYYCARRTFGPPHAWGQGTMVTVSS
VL: DIVMTQSPLSLSVTPGEPASISCRSSQSLLHSNGYKYLDWYLQKPGQSPQLLIYMGSNRASGVPDRFSGSGSGTDFTLKISRVEAEDVGVYYCMQGLQSPLTFGGGTKVEIE
SulfoTyr C4 peptide
  binding normalized to PSGL-1: 0.49
[1]
  A450nm: 2.58 A450nm
[2]
  binding normalized to PSGL-1: 0.58
[3]
  binding normalized to PSGL-1: 0.29
SulfoCCK biotin peptide
  binding normalized to PSGL-1: 0.74
[4]
  binding normalized to PSGL-1: 0.45
[5]
  binding normalized to PSGL-1: 0.8

B5: 09A08 (antibody, IgG4, V domains shown)
VH: QVQLVQSGAAVKKPGESLKISCKGSGYTFSNYWIGWVRQMPGKGLEWMGIIYPGDSDTRYSPSFQGQVTISADKSISTAYLQWSSLKASDTAMYYCARHIVGPPKSAFDIWGQGTMVTVSS
VL: DIVMTQTPLSLPVTLGQPASISCSSSQGLQKRDGNTYLNWFQQRPGQSPRRLIYKVSNRDSGVPDRFSGSGSGTDFTLKISRVEAEDVGVYYCMQGTHWPWTFGQGTRVEIK
SulfoTyr C4 peptide
  binding normalized to PSGL-1: 0.54
[1]
  A450nm: 2.49 A450nm
[2]
  binding normalized to PSGL-1: 0.22
[3]
  binding normalized to PSGL-1: 0.05
SulfoCCK biotin peptide
  binding normalized to PSGL-1: 0.08
[4]
  binding normalized to PSGL-1: 0.08
[5]
  binding normalized to PSGL-1: 0.6

B6: 05D01 (antibody, V domains shown)
VH: QVTLRESGGALVQPGGSLRLSCAASGFPLRSNAMTWVRQAPGKGLEWVSDIRGNGASTYYADSVKGRFTISRDDSNNILFLQMNSLRAEDTAVYYCVGHGSSSYWGQGTLVTVSS
VL: DVVMTQSPLSLPVTLGQPASISCRSSQSLVYRDGNIYLNWFQQRPGQSPRRLIYKVSNRDSGVPDRFSGSGSGTDFTLKISRVEAEDVGVYYCMQLTHWPPGFAQGTKLEIK
SulfoTyr C4 peptide
  binding normalized to PSGL-1: 0.11
[1]
  A450nm: 2.33 A450nm
[2]
  binding normalized to PSGL-1: 0.08
[3]
  binding normalized to PSGL-1: 0.07
SulfoCCK biotin peptide
  binding normalized to PSGL-1: 0.3
[4]
  binding normalized to PSGL-1: 0.17
[5]
  binding normalized to PSGL-1: 0.84

B7: 07E07 (antibody, IgG4, V domains shown)
VH: QVQLQQSGAEVKKPGASVKVSCKASGYTFTSYYMHWVRQAPGQGLEWMGIINTSSGSTKYAQRFQDRVTVTRDTSTTTVYMELNSLRSEDTAVYYCARGGRAYSGSFDNWGQGTLVTVSS
VL: DVVMTQSPLSLPVTLGQPASISCRSSQSLVHRDGNTYFNWFQQRPGQSPRRLIYKVSNRDSGVPDRFSGSGSGTDFTLKISRVEAEDVGVYYCMQATHWPRTFGQGTKVEIK
SulfoTyr C4 peptide
  binding normalized to PSGL-1: 0.97
[1]
  A450nm: 2.44 A450nm
[2]
  binding normalized to PSGL-1: 1.04
[3]
  binding normalized to PSGL-1: 0.29
SulfoCCK biotin peptide
  binding normalized to PSGL-1: 0.75
[4]
  binding normalized to PSGL-1: 0.75

B8: 05A11 (antibody, IgG4, V domains shown)
VH: EVKLLESGGGVVQPGRSLRLSCAASGFSFSAYGMHWVRQAPGKGLEWVSSISGSGDGTYYADSVKGRFTISRDNSKNTLYLQMNSLRAEDAAVYYCAKSVKGRGYFFDYWGQGTLVTVSS
VL: DIVLTQSPSSLSASVGDRVTITCRASQSISSYLNWYQQKPGKAPKLLIYAASSLQSGVPSRFSGSGSGTDFTLSISNLQPEDFATYYCQQAYKFPRSFGGGTKVEFK
SulfoTyr C4 peptide
  binding normalized to PSGL-1: 0.44
[1]
  A450nm: 1.99 A450nm
[2]
  binding normalized to PSGL-1: 0.44
[3]
  binding normalized to PSGL-1: 0.21
SulfoCCK biotin peptide
  binding normalized to PSGL-1: 0.41
[4]
  binding normalized to PSGL-1: 0.09
[5]
  binding normalized to PSGL-1: 0.45

B9: 05C02 (antibody, V domains shown)
VH: EVKLLESGGGVVQPGRSLRLSCAASGFTFKNFAMHWVRQAPGKGLEWVAVISYDGSSEDYADSVKGRFTLSRDNAKNSLYLQMNNLRAEDTAVYYCARGRRPDYWGQGTLVTVSS
VL: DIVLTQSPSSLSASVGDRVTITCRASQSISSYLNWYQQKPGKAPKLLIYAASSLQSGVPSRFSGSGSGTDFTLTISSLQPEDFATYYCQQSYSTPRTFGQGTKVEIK
SulfoTyr C4 peptide
  binding normalized to PSGL-1: 0.47
[1]
  A450nm: 2.27 A450nm
[2]
  binding normalized to PSGL-1: 0.48
[3]
  binding normalized to PSGL-1: 0.06
SulfoCCK biotin peptide
  binding normalized to PSGL-1: 0.17
[4]
  binding normalized to PSGL-1: 0.06
[5]
  binding normalized to PSGL-1: 0.52

B10: 05E08 (antibody, IgG4, V domains shown)
VH: EVQLVQSGGGVVQPGRSLRLSCAASGFTFSTYAMHWVRQAPGKGLEWVAVISYDGSNKYYADSVKGRFTISRDNSRNTLFLQMNSLRDEDTAVYYCAKRGTMIRGERSLDFWGQGTLVTVSS
VL: AIQMTQSPSFLSASVGDRVTITCRASQGINSWLAWYQQKPGTAPNLLIHAASTLQSGVPSRFSGSRSGTEFTLTISSLQPEDFATYYCQQLQSYPLTFGQGTRLEIK
SulfoTyr C4 peptide
  binding normalized to PSGL-1: 1
[1]
  A450nm: 2.46 A450nm
[2]
  binding normalized to PSGL-1: 1.04
[3]
  binding normalized to PSGL-1: 0.44
SulfoCCK biotin peptide
  binding normalized to PSGL-1: 0.85
[4]
  binding normalized to PSGL-1: 0.85
